Test results taken from patent US20230212319A1, “NOVEL ANTIGEN BINDING DOMAINS AND SYNTHETIC ANTIGEN RECEPTORS INCORPORATING THE SAME” (University of Southern California, priority 2020, published 2023).

Legend:
Assay type in all cases: cell-based
RS;411 = assay: JNG assay, co-culture with RS;411 cells; conditions: for NFAT-GFP ASSAY: RS411: co-culture with RS411
Method: Cellular supernatant is collected and assayed for the induction of cytokines (e.g., IL2).
JNG (Jurkat cells expressing EGFP under an NFAT promoter) were infected with lentiviral vectors encoding different single chain and multi-chain SARs by spinfection in the presence of 8 µg/ml of Polybrene® (Sigma, Catalog no. H9268). The Jurkat-NFAT-GFP cells are engineered in such a way that the IL-2 promoter, which carries NFAT binding sites, is cloned upstream of the GFP gene. These cells have been used to study signaling via TCR and CAR. The different SARs were stably expressed in Jurkat NFAT-GFP cells by lentiviral mediated gene transfer, followed by selection with puromycin or blasticidin. No drug selection was used in case the construct lacked an antibiotic resistance gene. The SAR-expressing Jurkat-NFAT-GFP cells were cocultured with the target cells at E:T ratio of approximately 1:2 for approximately 4 hours to 18 hours. When the interaction between SIRs and their target antigen results in activation of the NFAT pathway, GFP expression is induced. […] GFP expression was monitored by FACS analysis. The Jurkat-NFAT-GFP (parental) cells were used as control. The structure of different constructs can be determined based on their names. […] The sequence of the other constructs in the table can be similarly determined from their names and by referring to the different Tables of this disclosure that provide the names and SEQ ID NO of the different modules. Alternatively, the composition and modular architecture of the different SAR constructs can be determined from their sequences by bioinformatics tools, including using nucleic acid and amino acids homology searches. A SAR is considered positive in the assay in case the SAR expressing Jurkat-NFAT-GFP cells show greater % GFP positive cells when cultured with the target cell line as compared to parental Jurkat-NFAT-GFP cells. […] In general, the number +/-, +, 2+, 3+, 4+, 5+ refer to approximately 5%, 10%, 20%, 30%, 40% and 50% GFP positive cells. The % of GFP induction in the above assay is dependent not only the relative strength of the SAR but also, among other factors, on the relative level of expression of the SAR in the JNG cells and the relative level of expression of the target antigen in the target cell line. To control for the difference in gene transduction efficiency of the different SAR constructs, the experiment was conducted with JNG cells transduced with SAR constructs co-expressing a drug resistance gene (e.g., puromycin or PAC) followed by drug selection to generate a stable population of SAR-expressing cells. It is to be noted that the drug resistance gene (e.g., PAC) in the SAR constructs is optional and in vivo studies were conducted with SAR constructs lacking the PAC gene.

RAJI cells = assay: JNG assay, co-culture with RAJI cells
Outline: (§1)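 Read-out is NFAT-driven GFP measured by flow cytometry after ~4–18 h co-culture of SAR-expressing JNG cells with target cells (E:T about 1:2). SARs were introduced by lentiviral spinfection and selected with puromycin or blasticidin when possible; scores (+/- to 5+ ≈ 5–50% GFP+) are relative to parental JNG cells.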

Nalm6 cells = assay: JNG assay, co-culture with Nalm6 cells
Outline: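 Stable SAR lines in NFAT-GFP Jurkat background; coculture with target line ~4–18 h, E:T ~1:2; flow readout of GFP; positive if %GFP+ exceeds parental line; semi-quantitative grading +/- (~5%) through 5+ (~50%).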

L363 cells = assay: JNG assay, co-culture with L363 cells; conditions: co-culture with L363
Outline: as §1

| Molecule | GFP induction / activity (RS;411; co-culture with RS;411 cells) | GFP induction / activity (RAJI cells; co-culture with RAJI cells) | GFP induction / activity (Nalm6 cells; co-culture with Nalm6 cells) | NFAT-GFP ASSAY: RS411 (RS;411) | NFAT-GFP ASSAY: Nalm6 (Nalm6 cells; co-culture with Nalm6) | NFAT-GFP ASSAY: Raji (RAJI cells; JNG cells expressing construct, co-culture with Raji) | NFAT-GFP ASSAY: L363 (L363 cells) |
| --- | --- | --- | --- | --- | --- | --- | --- |
| SEQ ID NO: 22162: bispecific SAR construct targeting CD19 and PD1 (protein) MALPVTALLLPLALLLHAARPDIQMTQSPSSLSASVGDRVTITCKASDHINNWLAWYQQKPGQAPKLLIYGATTLETGVPSRFSGSGSGTDYTLTISSLQPEDFATYYCQQSWNTPWTFGQGTKLEIKRLEDLKNVFPPEVAVFEPSEAEISHTQKATLVCLATGFYPDHVELSWWVNGKEVHSGVCTDPQPLKEQPALNDSRYCLSSRLRVSATFWQNPRNHFRCQVQFYGLSENDEWTQDRAKPVTQIVSAEAWGRADCGFTSESYQQGVLSATILYEILLGKATLYAVLVSALVLMAMVKRKDSRGRAKRSGSGATNFSLLKQAGDVEENPGPTSATMDWIWRILFLVGAATGAHSGPEVQLLESGGGLVQPGGSLRLSCAASGSIASIHAMGWFRQAPGKEREFVAVITWSGGITYYADSVKGRFTISRDNSKNTVYLQMNSLRPEDTALYYCAGDKHQSSWYDYWGQGTLVTVSSGSGGGGSGGGGSGGGGSFEQVQLQQPGAELVKPGASVKMSCKASGYAFSSYWINWMKQKPGQGLEWIGQIYPGDGDTNYNGKFKGRATLTADTSSSTAYMQLSSLTSEDSAVYFCARSITTVVGCAMDYWGQGTSVTVSSTRIQNPDPAVYQLRDSKSSDKSVCLFTDFDSQTNVSQSKDSDVYITDKCVLDMRSMDFKSNSAVAWSNKSDFACANAFNNSIIPEDTFFPSPESSCDVKLVEKSFETDTNLNFQNLSVIGFRILLLKVAGFNLLMTLRLWSSRAKRSGSGVKQTLNFDLLKLAGDVESNPGPSRGHMTEYKPTVRLATRDDVPRAVRTLAAAFADYPATRHTVDPDRHIERVTELQELFLTRVGLDIGKVWVADDGAAVAVWTTPESVEAGAVFAEIGPRMAELSGSRLAAQQQMEGLLAPHRPKEPAWFLATVGVSPDHQGKGLGSAVVLPGVEAAERAGVPAFLETSAPRNLPFYERLGFTVTADVEVPEGPRTWCMTRKPGA | robust activity | robust activity | robust activity |  |  |  |  |
| 22124 (protein) MALPVTALLLPLALLLHAARPEVQLVESGGGLVQAGGSLRLSCAASGRTFSMGWFRQAPGKEREFVAAITYSGGSPYYADSVKGRFTISRDNAKNTVYLQMNSLKPEDTAVYYCAANPTYGSDWNAENWGQGTQVTVSSGGGGSGGGGSQLQLQESGPGLVKPSETLSLTCTVSGGSISSGDYYWGWIRQPPGKGLEWIGSISYSGSTYYNPSLKSRVTISVDTSRNQFSLKLSSVTAADTAVYYCTREDSSNWRSRGQGTLVTVSSGTGGGGSGGGGSGGGGSEFDIQMTQSPSSLSASVGDRVTITCKASDHINNWLAWYQQKPGQAPKLLIYGATTLETGVPSRFSGSGSGTDYTLTISSLQPEDFATYYCQQSWNTPWTFGQGTKLEIKRLEIQNPDPAVYQLRDSKSSDKSVCLFTDFDSQTNVSQSKDSDVYITDKCVLDMRSMDFKSNSAVAWSNKSDFACANAFNNSIIPEDTFFPSSDVPCDVKLVEKSFETDTNLNFQNLSVIGFRILLLKVAGFNLLMTLRLWSSRAKRSGSGVKQTLNFDLLKLAGDVESNPGPTSATMDWIWRILFLVGAATGAHSGPQVQLQESGGGLAQAGGSLRLSCAASGRTFSMGWFRQAPGKEREFVAAITYSGGSPYYASSVRGRFTISRDNAKNTVYLQMNSLKPEDTAVYYCAANPTYGSDWNAENWGQGTQVTVSSGSGGGGSGGGGSGGGGSFEQVQLQQPGAELVKPGASVKMSCKASGYAFSSYWINWMKQKPGQGLEWIGQIYPGDGDTNYNGKFKGRATLTADTSSSTAYMQLSSLTSEDSAVYFCARSITTVVGCAMDYWGQGTSVTVSSTREDLKNVFPPEVAVFEPSKAEIAHTQKATLVCLATGFYPDHVELSWWVNGKEVHSGVCTDPQPLKEQPALNDSRYCLSSRLRVSATFWQNPRNHFRCQVQFYGLSENDEWTQDRAKPVTQIVSAEAWGRADCGITSASYHQGVLSATILYEILLGKATLYAVLVSALVLMAMVKRKDSRGRAKRSGSGATNFSLLKQAGDVEENPGPSRGHMTEYKPTVRLATRDDVPRAVRTLAAAFADYPATRHTVDPDRHIERVTELQELFLTRVGLDIGKVWVADDGAAVAVWTTPESVEAGAVFAEIGPRMAELSGSRLAAQQQMEGLLAPHRPKEPAWFLATVGVSPDHQGKGLGSAVVLPGVEAAERAGVPAFLETSAPRNLPFYERLGFTVTADVEVPEGPRTWCMTRKPGA |  |  |  | 2+ (refer to approximately 5%, 10%, 20%, 30%, 40% and 50% GFP positive cells) | 2+ (refer to approximately 5%, 10%, 20%, 30%, 40% and 50% GFP positive cells) |  |  |
| 22143 (protein) MALPVTALLLPLALLLHAARPQVQLVESGGGLVQPGGSLRLSCAASGFTFTNHAMSWVRQAPGKGLELVSSISGNGRTTYYADSVKGRFTISRDISKNTLDLQMNSLRAEDTAVYYCAKDGGETLVDSRGQGTLVTVSSLEGGGGSGGGGSIEGGGGSGGGGSKVQLLESGGGLVQPGGSLRLSCAASGFIFSSYAMSWVRQAPGKGQEWVSGVSGTGVNTYYADSVKGRFTISRDNSKNTLYLQMNSLRAEDTAVYYCASGKGWDSGSWYEDYRGQGTLVTVSSGTGGGGSGGGGSGGGGSEFDIQMTQSPSSLSASVGDRVTITCKASDHINNWLAWYQQKPGQAPKLLIYGATTLETGVPSRFSGSGSGTDYTLTISSLQPEDFATYYCQQSWNTPWTFGQGTKLEIKRLEDLKNVFPPEVAVFEPSKAEIAHTQKATLVCLATGFYPDHVELSWWVNGKEVHSGVCTDPQPLKEQPALNDSRYCLSSRLRVSATFWQNPRNHFRCQVQFYGLSENDEWTQDRAKPVTQIVSAEAWGRADCGITSASYHQGVLSATILYEILLGKATLYAVLVSALVLMAMVKRKDSRGRAKRSGSGATNFSLLKQAGDVEENPGPTSATMDWIWRILFLVGAATGAHSGPQVQLQESGGGLAQAGGSLRLSCAASGRTFSMGWFRQAPGKEREFVAAITYSGGSPYYASSVRGRFTISRDNAKNTVYLQMNSLKPEDTAVYYCAANPTYGSDWNAENWGQGTQVTVSSGSGGGGSGGGGSGGGGSFEQVQLQQPGAELVKPGASVKMSCKASGYAFSSYWINWMKQKPGQGLEWIGQIYPGDGDTNYNGKFKGRATLTADTSSSTAYMQLSSLTSEDSAVYFCARSITTVVGCAMDYWGQGTSVTVSSTRIQNPDPAVYQLRDSKSSDKSVCLFTDFDSQTNVSQSKDSDVYITDKCVLDMRSMDFKSNSAVAWSNKSDFACANAFNNSIIPEDTFFPSSDVPCDVKLVEKSFETDTNLNFQNLSVIGFRILLLKVAGFNLLMTLRLWSSRAKRSGSGVKQTLNFDLLKLAGDVESNPGPSRGHMTEYKPTVRLATRDDVPRAVRTLAAAFADYPATRHTVDPDRHIERVTELQELFLTRVGLDIGKVWVADDGAAVAVWTTPESVEAGAVFAEIGPRMAELSGSRLAAQQQMEGLLAPHRPKEPAWFLATVGVSPDHQGKGLGSAVVLPGVEAAERAGVPAFLETSAPRNLPFYERLGFTVTADVEVPEGPRTWCMTRKPGA |  |  |  | 2+ (refer to approximately 5%, 10%, 20%, 30%, 40% and 50% GFP positive cells) |  | 2+ (refer to approximately 5%, 10%, 20%, 30%, 40% and 50% GFP positive cells) | 2+ (refer to approximately 5%, 10%, 20%, 30%, 40% and 50% GFP positive cells) |
